Substrate: Nc1ncnc2c1ncn2[C@@H]1O[C@H](COP(=O)(O)OP(=O)(O)OP(=O)(O)O)[C@@H](O)[C@H]1O
Experiment: purified protein
Details: basal ATPase, 0.4 μM protein, 10 mM HEPES-KOH pH 7.5, 100 mM KCl, 2 mM MgCl2, 0.5 mM DTT, kcat unit as printed

B1: PfHsp70-z (Plasmodium falciparum 3D7) (protein)
chain: MSVLGIDIGNDNSVVATINKGAINVVRNDISERLTPTLVGFTEKERLIGDSALSKLKSNYKNTCRNIKNLIGKIGTDVKDDIEIHEAYGDLIPCEYNYLGYEVEYKNEKVVFSAVRVLSALLSHLIKMAEKYIGKECKEIVLSYPPTFTNCQKECLLAATKIINANVLRIISDNTAVALDYGMYRMKEFKEDNGSLLVFVNIGYANTCVCVARFFSNKCEILCDIADSNLGGRNLDNELIKYITNIFVNNYKMNPLYKNNTPELCPMGTGRLNKFLVTSTASDQQNGINNKVRIKLQEVAIKTKKVLSANNEASIHVECLYEDLDCQGSINRETFEELCSNFFLTKLKHLLDTALCISKVNIQDIHSIEVLGGSTRVPFIQNFLQQYFQKPLSKTLIADESIARGCVLSAAMVSKHYKVKEYECVEKVTHPINVEWHNINDASKSNVEKLYTRDSLKKKVKKIVIPEKGHIKLTAYYENTPDLPSNCIKELGSCIVKINEKNDKIVESHVMTTFSNYDTFTFLGAQTVTKSVIKSKDEKKKADDKTEDKGEKKDAKDQEQNDDKDQTNDNNMNEKDTNDKKEKNNETNSPNKTELKKGEEGKVQTCYTTIPIETLLAQGSYSSKDIFNFSEQEINMQHSDILEGERLKHLNELETIIYESRSRLNGIYKNFVMDDERDRILLSLDDYENWLYDNIEENKNMFIKKKEEIRDLIKNIVQKFDVYNSKQQNLGNIINHLNNIITQCSNKPSDESQNIINRTTKFLNNINSLQEQEKNKPLYEPPVYTLNDIEAEFNEVTQLAQKFFSKLEVEELAKQKAKQEKEKEKEKEKEKEKEKEKNEETNLDANEEQNNEAKNNEEKENSTKNENSANPEE
- Km: 283 (+/-3) μM
- Vmax: 0.0198 µmol/min/mg

Reference: PMC4471362
